Patent US20230357348A1 (AstraZeneca / MedImmune, published 2023)
Each block holds one binder with its values, some of them ahead of it. Starred links: 1 amine or outer side, 2 acyl side, 3 side chain; linkers in the order of their positions; H or OH if unused. Non-standard residues stand in square brackets, D forms with d. Groups on a side chain read outwards from the residue. Primed or numbered codes have the meaning given here. No end group written: not given here. *: point of attachment. (PEG)2″ = polyethylene glycol 2 linker unit; C20 diacid = O=C(O)CCCCCCCCCCCCCCCCCCC(=O)*; C18 diacid = O=C(O)CCCCCCCCCCCCCCCCC(=O)*; γGlu = O=C(O)[C@H](CCC(=O)[*:2])N[*:1]; Stearoyl = CCCCCCCCCCCCCCCCCC(=O)*; Palmitoyl = CCCCCCCCCCCCCCCC(=O)*; αMeF = C[C@](N)(Cc1ccccc1)C(=O)O; Myristoyl = CCCCCCCCCCCCCC(=O)*; PEG2′ = polyethylene glycol 2; AEEA = NCCOCCOCC(=O)O; Aib = CC(C)(N)C(=O)O

Assays:
[1] = target: human GLP-1 receptor (hGLP-1R) (human, UniProt P43220 24-463); assay: cell-based or functional assay
[2] = target: human glucagon receptor (hGCGR) (human, UniProt P47871 26-477); assay: cell-based or functional assay
Chain of human glucagon receptor (hGCGR) (P47871 26-477): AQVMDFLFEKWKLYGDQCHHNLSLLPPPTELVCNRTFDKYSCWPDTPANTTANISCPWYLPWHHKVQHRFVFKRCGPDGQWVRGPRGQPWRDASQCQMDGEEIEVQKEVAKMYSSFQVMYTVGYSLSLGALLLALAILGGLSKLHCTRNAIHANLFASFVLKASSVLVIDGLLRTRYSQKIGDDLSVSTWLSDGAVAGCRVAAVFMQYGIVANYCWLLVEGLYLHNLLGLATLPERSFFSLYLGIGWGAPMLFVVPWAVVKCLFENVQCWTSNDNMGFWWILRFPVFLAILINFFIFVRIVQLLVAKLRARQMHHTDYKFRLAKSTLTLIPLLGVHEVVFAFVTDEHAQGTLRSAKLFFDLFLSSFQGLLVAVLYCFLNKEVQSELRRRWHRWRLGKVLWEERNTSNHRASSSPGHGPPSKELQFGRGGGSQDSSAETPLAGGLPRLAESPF

B1: Peptide 100 (peptide)
peptide: HSQGS[αMeF]TSDVSK[Aib]LDSK([(PEG)2″-(PEG)2″-γGlu-γGlu-Stearyl])AAQD[αMeF]VQ[Aib]IAN-NH2
hGLP-1R EC50 (pM) [1]: 0.258 pM
hGluc-R EC50 (pM) [2]: 40.5 pM

B2: Peptide 109 (peptide)
peptide: HSQGS[αMeF]TSDVSK(Ac)[Aib]LDSK([AEEA-AEEA-γGlu-C18 diacid])AAQD[αMeF]VQ[Aib]IAN-NH2
modifications: N-terminus assumed
SMILES: CC[C@H](C)[C@H](NC(=O)C(C)(C)NC(=O)[C@H](CCC(N)=O)NC(=O)[C@@H](NC(=O)[C@](C)(Cc1ccccc1)NC(=O)[C@H](CC(=O)O)NC(=O)[C@H](CCC(N)=O)NC(=O)[C@H](C)NC(=O)[C@H](C)NC(=O)[C@H](CCCCNC(=O)COCCOCCNC(=O)COCCOCCNC(=O)CC[C@H](NC(=O)CCCCCCCCCCCCCCCCC(=O)O)C(=O)O)NC(=O)[C@H](CO)NC(=O)[C@H](CC(=O)O)NC(=O)[C@H](CC(C)C)NC(=O)C(C)(C)NC(=O)[C@H](CCCCNC(C)=O)NC(=O)[C@H](CO)NC(=O)[C@@H](NC(=O)[C@H](CC(=O)O)NC(=O)[C@H](CO)NC(=O)[C@@H](NC(=O)[C@](C)(Cc1ccccc1)NC(=O)[C@H](CO)NC(=O)CNC(=O)[C@H](CCC(N)=O)NC(=O)[C@H](CO)NC(=O)[C@@H](N)Cc1c[nH]cn1)[C@@H](C)O)C(C)C)C(C)C)C(=O)N[C@@H](C)C(=O)N[C@@H](CC(N)=O)C(N)=O
hGLP-1R EC50 (pM) [1]: 698 pM
hGluc-R EC50 (pM) [2]: > 26800 pM

B7: Peptide 14 (peptide)
peptide: H[Aib]HGS[αMeF]TSDVSK[αMeF]LDSK([AEEA-AEEA-γGlu-γGlu-C20 diacid])AARD[αMeF]VQ[Aib]IANT-NH2
modifications: N-terminus assumed
SMILES: CC[C@H](C)[C@H](NC(=O)C(C)(C)NC(=O)[C@H](CCC(N)=O)NC(=O)[C@@H](NC(=O)[C@](C)(Cc1ccccc1)NC(=O)[C@H](CC(=O)O)NC(=O)[C@H](CCCNC(=N)N)NC(=O)[C@H](C)NC(=O)[C@H](C)NC(=O)[C@H](CCCCNC(=O)COCCOCCNC(=O)COCCOCCNC(=O)CC[C@H](NC(=O)CC[C@H](NC(=O)CCCCCCCCCCCCCCCCCCC(=O)O)C(=O)O)C(=O)O)NC(=O)[C@H](CO)NC(=O)[C@H](CC(=O)O)NC(=O)[C@H](CC(C)C)NC(=O)[C@](C)(Cc1ccccc1)NC(=O)[C@H](CCCCN)NC(=O)[C@H](CO)NC(=O)[C@@H](NC(=O)[C@H](CC(=O)O)NC(=O)[C@H](CO)NC(=O)[C@@H](NC(=O)[C@](C)(Cc1ccccc1)NC(=O)[C@H](CO)NC(=O)CNC(=O)[C@H](Cc1c[nH]cn1)NC(=O)C(C)(C)NC(=O)[C@@H](N)Cc1c[nH]cn1)[C@@H](C)O)C(C)C)C(C)C)C(=O)N[C@@H](C)C(=O)N[C@@H](CC(N)=O)C(=O)N[C@H](C(N)=O)[C@@H](C)O
hGLP-1R EC50 (pM) [1]: 93.8 pM
hGluc-R EC50 (pM) [2]: 462 pM

B8: Peptide 110 (peptide)
peptide: HSQGS[αMeF]TSDVSK(Ac)[Aib]LDSK([PEG2′-PEG2′-γGlu-γGlu-Stearyl])AAQD[αMeF]VQ[Aib]IAN-NH2
hGLP-1R EC50 (pM) [1]: 0.627 pM
hGluc-R EC50 (pM) [2]: 48.5 pM

B14: Peptide 1 (peptide)
peptide: HSQGS[αMeF]TSDVSK[Aib]LDSK([AEEA-AEEA-γGlu-C18 diacid])AAQD[αMeF]VQ[Aib]IAN-NH2
modifications: N-terminus assumed
SMILES: CC[C@H](C)[C@H](NC(=O)C(C)(C)NC(=O)[C@H](CCC(N)=O)NC(=O)[C@@H](NC(=O)[C@](C)(Cc1ccccc1)NC(=O)[C@H](CC(=O)O)NC(=O)[C@H](CCC(N)=O)NC(=O)[C@H](C)NC(=O)[C@H](C)NC(=O)[C@H](CCCCNC(=O)COCCOCCNC(=O)COCCOCCNC(=O)CC[C@H](NC(=O)CCCCCCCCCCCCCCCCC(=O)O)C(=O)O)NC(=O)[C@H](CO)NC(=O)[C@H](CC(=O)O)NC(=O)[C@H](CC(C)C)NC(=O)C(C)(C)NC(=O)[C@H](CCCCN)NC(=O)[C@H](CO)NC(=O)[C@@H](NC(=O)[C@H](CC(=O)O)NC(=O)[C@H](CO)NC(=O)[C@@H](NC(=O)[C@](C)(Cc1ccccc1)NC(=O)[C@H](CO)NC(=O)CNC(=O)[C@H](CCC(N)=O)NC(=O)[C@H](CO)NC(=O)[C@@H](N)Cc1c[nH]cn1)[C@@H](C)O)C(C)C)C(C)C)C(=O)N[C@@H](C)C(=O)N[C@@H](CC(N)=O)C(N)=O
hGLP-1R EC50 (pM) [1]: 3200 pM
hGluc-R EC50 (pM) [2]: > 27100 pM

B15: Peptide 11 (peptide)
peptide: H[Aib]HGS[αMeF]TSDVSK[αMeF]LDSK([AEEA-AEEA-γGlu-C18 diacid])AAQDFVQ[Aib]IANT-NH2
hGLP-1R EC50 (pM) [1]: 157 pM
hGluc-R EC50 (pM) [2]: 118 pM

B16: Peptide 13 (peptide)
peptide: H[Aib]HGS[αMeF]TSDVSK[αMeF]LDSK([AEEA-AEEA-γGlu-C18 diacid])AARD[αMeF]VQ[Aib]IANT-NH2
modifications: N-terminus assumed
SMILES: CC[C@H](C)[C@H](NC(=O)C(C)(C)NC(=O)[C@H](CCC(N)=O)NC(=O)[C@@H](NC(=O)[C@](C)(Cc1ccccc1)NC(=O)[C@H](CC(=O)O)NC(=O)[C@H](CCCNC(=N)N)NC(=O)[C@H](C)NC(=O)[C@H](C)NC(=O)[C@H](CCCCNC(=O)COCCOCCNC(=O)COCCOCCNC(=O)CC[C@H](NC(=O)CCCCCCCCCCCCCCCCC(=O)O)C(=O)O)NC(=O)[C@H](CO)NC(=O)[C@H](CC(=O)O)NC(=O)[C@H](CC(C)C)NC(=O)[C@](C)(Cc1ccccc1)NC(=O)[C@H](CCCCN)NC(=O)[C@H](CO)NC(=O)[C@@H](NC(=O)[C@H](CC(=O)O)NC(=O)[C@H](CO)NC(=O)[C@@H](NC(=O)[C@](C)(Cc1ccccc1)NC(=O)[C@H](CO)NC(=O)CNC(=O)[C@H](Cc1c[nH]cn1)NC(=O)C(C)(C)NC(=O)[C@@H](N)Cc1c[nH]cn1)[C@@H](C)O)C(C)C)C(C)C)C(=O)N[C@@H](C)C(=O)N[C@@H](CC(N)=O)C(=O)N[C@H](C(N)=O)[C@@H](C)O
hGLP-1R EC50 (pM) [1]: 15.9 pM
hGluc-R EC50 (pM) [2]: 44 pM

B17: Peptide 12 (peptide)
peptide: H[Aib]HGS[αMeF]TSDVSK[αMeF]LDSK([AEEA-AEEA-γGlu-C18 diacid])AARDFVQ[Aib]IANT-NH2
modifications: N-terminus assumed
SMILES: CC[C@H](C)[C@H](NC(=O)C(C)(C)NC(=O)[C@H](CCC(N)=O)NC(=O)[C@@H](NC(=O)[C@H](Cc1ccccc1)NC(=O)[C@H](CC(=O)O)NC(=O)[C@H](CCCNC(=N)N)NC(=O)[C@H](C)NC(=O)[C@H](C)NC(=O)[C@H](CCCCNC(=O)COCCOCCNC(=O)COCCOCCNC(=O)CC[C@H](NC(=O)CCCCCCCCCCCCCCCCC(=O)O)C(=O)O)NC(=O)[C@H](CO)NC(=O)[C@H](CC(=O)O)NC(=O)[C@H](CC(C)C)NC(=O)[C@](C)(Cc1ccccc1)NC(=O)[C@H](CCCCN)NC(=O)[C@H](CO)NC(=O)[C@@H](NC(=O)[C@H](CC(=O)O)NC(=O)[C@H](CO)NC(=O)[C@@H](NC(=O)[C@](C)(Cc1ccccc1)NC(=O)[C@H](CO)NC(=O)CNC(=O)[C@H](Cc1c[nH]cn1)NC(=O)C(C)(C)NC(=O)[C@@H](N)Cc1c[nH]cn1)[C@@H](C)O)C(C)C)C(C)C)C(=O)N[C@@H](C)C(=O)N[C@@H](CC(N)=O)C(=O)N[C@H](C(N)=O)[C@@H](C)O
hGLP-1R EC50 (pM) [1]: 14.5 pM
hGluc-R EC50 (pM) [2]: 47.7 pM

Now from value to binder:

hGLP-1R EC50 (pM) [1]: 0.575 pM
hGluc-R EC50 (pM) [2]: 6.68 pM
B3: Peptide 125 (peptide)
peptide: H[Aib]QGS[αMeF]TSDVSKILDSK([PEG2′-PEG2′-γGlu-γGlu-Palmitoyl])AAQD[αMeF]VQ[Aib]IINT-NH2

hGLP-1R EC50 (pM) [1]: 1.07 pM
hGluc-R EC50 (pM) [2]: 1.2 pM
B4: Peptide 118 (peptide)
peptide: HSQGS[αMeF]TSDVSKILDSK([PEG2′-PEG2′-γGlu-γGlu-Palmitoyl])AAQD[αMeF]VQ[Aib]IINT-NH2

hGLP-1R EC50 (pM) [1]: 0.998 pM
hGluc-R EC50 (pM) [2]: 12.6 pM
B5: Peptide 127 (peptide)
peptide: H[Aib]QGS[αMeF]TSDVSKILDSK([PEG2′-PEG2′-γGlu-Stearoyl])AAQD[αMeF]VQ[Aib]IINT-NH2

hGLP-1R EC50 (pM) [1]: 0.788 pM
hGluc-R EC50 (pM) [2]: 4.7 pM
B6: Peptide 128 (peptide)
peptide: H[Aib]QGS[αMeF]TSDVSKILDSK([PEG2′-PEG2′-γGlu-Palmitoyl])AAQD[αMeF]VQ[Aib]IINT-NH2

hGLP-1R EC50 (pM) [1]: 1.81 pM
hGluc-R EC50 (pM) [2]: 2.62 pM
B9: Peptide 120 (peptide)
peptide: HSQGS[αMeF]TSDVSKILDSK([PEG2′-PEG2′-γGlu-Stearoyl])AAQD[αMeF]VQ[Aib]IINT-NH2

hGLP-1R EC50 (pM) [1]: 1.92 pM
hGluc-R EC50 (pM) [2]: 2.09 pM
B10: Peptide 111 (peptide)
peptide: HSQGS[αMeF]TSDVSKILDSKAAQD[αMeF]VQ[Aib]IAN-NH2
modifications: not fully specified (residue 17)

hGLP-1R EC50 (pM) [1]: 1.42 pM
hGluc-R EC50 (pM) [2]: 0.857 pM
B11: Peptide 122 (peptide)
peptide: HSQGS[αMeF]TSDVSKILDSK([PEG2′-PEG2′-γGlu-Myristoyl])AAQD[αMeF]VQ[Aib]IINT-NH2

hGLP-1R EC50 (pM) [1]: 1.39 pM
hGluc-R EC50 (pM) [2]: 1.7 pM
B12: Peptide 119 (peptide)
peptide: HSQGS[αMeF]TSDVSKILDSK([PEG2′-PEG2′-γGlu-γGlu-Myristoyl])AAQD[αMeF]VQ[Aib]IINT-NH2

hGLP-1R EC50 (pM) [1]: 0.462 pM
hGluc-R EC50 (pM) [2]: 4.1 pM
B13: Peptide 129 (peptide)
peptide: H[Aib]QGS[αMeF]TSDVSKILDSK([PEG2′-PEG2′-γGlu-Myristoyl])AAQD[αMeF]VQ[Aib]IINT-NH2

hGLP-1R EC50 (pM) [1]: 1.5 pM
hGluc-R EC50 (pM) [2]: 1.2 pM
B18: Peptide 121 (peptide)
peptide: HSQGS[αMeF]TSDVSKILDSK([PEG2′-PEG2′-γGlu-Palmitoyl])AAQD[αMeF]VQ[Aib]IINT-NH2
